Our source for the amyloid nucleation score values is the supplement of paper PMC12042874.

± gives the uncertainty stated by the source.

The data set can be described thus: amyloid nucleation score (Sup35N fusion, yeast selection) (log enrichment); library NNK3; higher = more nucleation; inactive = no reads after selection. An outline of the steps:
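The nucleation score is the DiMSum log enrichment of output over input reads, centred on the mode score of non-aggregating sequences. Only sequences with 100 or more input reads were scored, using Illumina sequencing of input and output plasmid inserts. Psi-negative yeast expressing Sup35N fused to peptides of 20 random codons were induced 24 hours with 100 μM copper sulfate and grown 7 days at 30°C on medium lacking adenine and uracil.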
With VWVDFGFPVHMIIL, the amyloid nucleation score result was “inactive”. VYASCTFNIEKVLSVVQTTF came in with an amyloid nucleation score of 1.52 ± 0.087. The figure for VYCEPNMP is -0.163 ± 1.1; for VYESFLLMLFYFRSDCKKKR it is “inactive”. On to VYETELTFSARPRFCWCC, for which the amyloid nucleation score worked out at 0.094 ± 0.59.

For VYGASTLSAHMWR, the amyloid nucleation score entry is “inactive”. To VYGYELRCDLKGMLLS belongs “inactive”; to VYIMYLSGCCRCHVPMNEGT, 2.05 ± 0.073. To VYLDYGGLHLRVLHTCRFYC belongs “inactive”. Turning to VYLYIWQKVSGHHYGFQMDW, the amyloid nucleation score entry is “inactive”.

Consider VYMGTVWCSRAI, for which the amyloid nucleation score entry is “inactive”. To VYPSTSTLNYVMLQLTPVNS belongs “inactive”. With VYSDDVKVVYMYGTNPFDTV, the amyloid nucleation score result is “inactive”. The entry for VYSEFWVHMLLLSFRVIYIL is “inactive”; for VYSMEPECIW it is “inactive”; for WAGGSDPRCNFKCLCVKGFC it is “inactive”. The entry for WAVIKLMRSERTVGVWGSNT is “inactive”.

Regarding WCFHDGLRAYVNFCRVYATN, the amyloid nucleation score entry was “inactive”.

In the case of WCLPNCPIVFNMHQLAHLSR, the amyloid nucleation score amounted to 0.021 ± 0.44.

On to WCNMVRVHMF, for which the amyloid nucleation score entry was “inactive”. The figure for WCPSQDNFWQNFLF is -0.079 ± 0.23. The entry for WCPSSSM is “inactive”; for WDAPKCNSVNYLLKDHYHRC it is “inactive”; for WDEIIY it is “inactive”. Regarding WDIMSRYLCMYIGYTARRCM, the amyloid nucleation score result was “inactive”. The figure for WDKMYDDEGKGIVLEVVFLR is -0.012 ± 0.87. The entry for WDNLCGTAFHAVN is “inactive”; for WEGRLDCFSMRWLQMLGSND it is “inactive”. In the case of WEILYPEGWFWTFRRSGVGS, the amyloid nucleation score result was “inactive”.

For the substance WEKYMRMSGRPMGRFKMTGR, the amyloid nucleation score result is “inactive”.

Consider WFDWVMVTYEGLSTVF, for which the amyloid nucleation score result was “inactive”. The entry for WFEEATRGRNETS is “inactive”.

As for WFFDTDIFHCEFEKMYYPLV, the amyloid nucleation score entry was “inactive”. As to WFFTLCSSDQVSRGMR, the amyloid nucleation score entry is “inactive”. On to WFGKPFYTYSKSSWRMLYQL, for which the amyloid nucleation score entry is “inactive”.

Regarding WFISTFDLDRYKFASCSKAW, the amyloid nucleation score result is “inactive”. Consider WFPMSAKLYAHATHCVPLSL, for which the amyloid nucleation score entry is “inactive”. Consider WFRTGLAKNSISSGVGVMCH, for which the amyloid nucleation score entry is “inactive”.

With WFSYQFV, the amyloid nucleation score result was “inactive”. As for WGMICIVYCVGIDMWLYVKC, the amyloid nucleation score entry is “inactive”. To WGTLTLCTGDAGLSMTGKWV belongs 0.399 ± 0.43. To WGVHCMSQDVRVWWLSLWGG belongs “inactive”; to WGVNYMLWDCIYEATLSLIP, “inactive”; to WHCVSFKLNDL, “inactive”. Take WHMWMESKLWQPQRATSVFP: the amyloid nucleation score result is “inactive”. The entry for WHSYTKLCGRTSPPSSTLTG is “inactive”; for WHTAKGTWSTGRQEDTGQSR it is “inactive”; for WIDGINWLSSLVTAIKHSVK it is “inactive”. For the substance WIGVQCP, the amyloid nucleation score result was “inactive”. As for WIMWNMRAKNLKLLPARARV, the amyloid nucleation score result was “inactive”. Take WKEWLGMGLLVSNAGHKQGG: the amyloid nucleation score result was “inactive”.

For the substance WKFINDIASN, the amyloid nucleation score entry was “inactive”. To WKGLL belongs “inactive”. As for WKYRMTQRPQMVNWNVLRYE, the amyloid nucleation score entry is “inactive”.

As for WLFAIFGDGAVFGSYGGWGV, the amyloid nucleation score result is “inactive”.

Consider WLRRN, for which the amyloid nucleation score entry was “inactive”. The figure for WLSGACEPPF is 0.718 ± 0.28; for WLSRLVGFALSTKLGP it is “inactive”; for WLSRPLCIIGWASRSMRGSH it is “inactive”. The entry for WLVGFLFILWV is “inactive”; for WLVGICWNWRWHLAVAGVVG it is “inactive”; for WLWVGIGLRSYELLNEEW it is “inactive”. To WMDIYW belongs 0.403 ± 0.24; to WMDNAI, “inactive”. Regarding WMGSVCSFRSIPCSMSTLR, the amyloid nucleation score result is “inactive”. To WMMMNFHLSMQD belongs 1.6 ± 0.087; to WMPDPRVCQKMFVMCKHSP, “inactive”; to WMVNVTGWISHGRFGYNFLI, “inactive”. The entry for WMYRKTSNRICCLPRESVNP is “inactive”; for WNRTEDMR it is “inactive”; for WNTGNMLPSVFTQMFA it is “inactive”. For WNYPFNFQF, the amyloid nucleation score entry was “inactive”. As to WPLYNFVISWIGRTYYSVYL, the amyloid nucleation score entry was “inactive”. As for WRAAIEDASLFIERIHNNSS, the amyloid nucleation score entry was “inactive”. On to WRDFLYLRHGFQYGIRPMSE, for which the amyloid nucleation score entry is “inactive”. Consider WRFFDVDNNMSTHVLKQLRC, for which the amyloid nucleation score result was “inactive”. To WRKTRGLNILRLWSLVSFRM belongs “inactive”. The entry for WRRLRATISNGAWD is “inactive”. The entry for WRTFLCWYVLGPKTSFEYGR is “inactive”. Turning to WRVSLWLGWNLFWTCSNPAD, the amyloid nucleation score result is “inactive”. As to WSIMSLNFRVDTHYSVHRYV, the amyloid nucleation score was 1.95 ± 0.099. To WSRHSTMGTRPEKQVLWPAG belongs “inactive”; to WSRLDMMLRLLAVLLPVRLD, “inactive”; to WSRSNGVFVGGRNCFLAQDF, “inactive”.

As to WSSSS, the amyloid nucleation score entry was “inactive”. To WSVGATWVVAFA belongs “inactive”; to WSVSKCDVLGLNSDVFKLWL, “inactive”; to WVCTVVLVKDLPPRRSVLVG, “inactive”.

In turn, WVCYNKFSVCVWLVDKAD gave an amyloid nucleation score of 2.01 ± 0.095.

On to WVQVRRVKIE, for which the amyloid nucleation score entry was “inactive”.

Regarding WVSSFTVAWKGGKQRVITVE, the amyloid nucleation score result is “inactive”. The entry for WVVKKVPDGRFLFVDCVCGI is “inactive”. As for WVVRYMDYSLMD, the amyloid nucleation score entry is “inactive”. As for WWCLFWVSWN, the amyloid nucleation score entry was “inactive”. The figure for WWNLWSPAATATRRCY is -0.462 ± 0.9. The entry for WWRKPLTFNDRIWRLRKHRS is “inactive”.
